Measurements from doi:10.1101/2022.05.31.494233 (bioRxiv, 2022).
Values belong to the molecule of their own block, whether it stands above or below them. Ends that are not written are not given here. * marks the point of attachment. Myristoyl = CCCCCCCCCCCCCC(=O)*

Tests used:
Experiment in all cases: SPR
[1] = molecular target: myristoylated Src N-terminal Regulatory Element (SNRE) of c-Src, wild type
myrUSH3 K5A = molecular target: myrUSH3 K5A
myrUSH3 K7A = molecular target: myrUSH3 K7A
myrUSH3 D10R = molecular target: myrUSH3 D10R
SPR = molecular target: the molecule itself

Molecule: myrUSH3 K5A (domain or fragment)
reduction of dimer formation relative to WT (myrUSH3 K5A): 50% | reduction of the dimer population relative to WT at the same protein density (myrUSH3 K5A): 50%

B1: myrSH4 R5R7R9 (triple arginine) (peptide, UniProt P12931 2-16, looked up)
peptide: Myristoyl-GSNRSRPRDASQRRR
binding result (SPR): binds

B2: myristoylated synthetic peptide with residues 2-16 of c-Src (entire SH4 domain), wild type (peptide, UniProt P12931-1 2-16, looked up)
peptide: Myristoyl-GSNKSKPKDASQRRR
binding result (SPR): binds

The next lines start with the values.

stoichiometry N [1]: 2
Molecule: myristoylated Src N-terminal Regulatory Element (SNRE) of c-Src, wild type (domain or fragment)

reduction of dimer formation relative to WT (myrUSH3 K7A): 50% | reduction of the dimer population relative to WT at the same protein density (myrUSH3 K7A): 40%
Molecule: myrUSH3 K7A (domain or fragment)

fold increase of dimerization relative to WT (myrUSH3 D10R): 6 fold
Molecule: myrUSH3 D10R (domain or fragment)
